Positions count from the first letter of the chain named.
T1: full-length untagged human GPNMB expressed on cells (human, UniProt Q14956 23-572)
T1 sequence: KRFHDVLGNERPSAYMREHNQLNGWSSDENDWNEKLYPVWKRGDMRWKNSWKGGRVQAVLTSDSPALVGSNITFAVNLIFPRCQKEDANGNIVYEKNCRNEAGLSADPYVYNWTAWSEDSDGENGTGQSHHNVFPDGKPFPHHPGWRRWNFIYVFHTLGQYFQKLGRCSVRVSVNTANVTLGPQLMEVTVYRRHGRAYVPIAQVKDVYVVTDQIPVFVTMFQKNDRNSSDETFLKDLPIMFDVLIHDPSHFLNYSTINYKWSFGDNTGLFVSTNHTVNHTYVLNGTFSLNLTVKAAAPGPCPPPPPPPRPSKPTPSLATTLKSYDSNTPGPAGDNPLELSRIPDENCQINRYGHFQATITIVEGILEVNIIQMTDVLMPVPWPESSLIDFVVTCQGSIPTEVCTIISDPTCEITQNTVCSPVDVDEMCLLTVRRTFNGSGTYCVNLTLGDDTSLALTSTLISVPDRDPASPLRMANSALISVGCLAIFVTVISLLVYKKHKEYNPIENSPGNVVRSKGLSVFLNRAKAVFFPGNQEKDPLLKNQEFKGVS

T2: mouse GPNMB endogenously expressed on B16F10 cells (mouse, UniProt Q99P91 23-574)
T2 construct: whole, on cells; also called moGPNMB
T2 sequence (looked up): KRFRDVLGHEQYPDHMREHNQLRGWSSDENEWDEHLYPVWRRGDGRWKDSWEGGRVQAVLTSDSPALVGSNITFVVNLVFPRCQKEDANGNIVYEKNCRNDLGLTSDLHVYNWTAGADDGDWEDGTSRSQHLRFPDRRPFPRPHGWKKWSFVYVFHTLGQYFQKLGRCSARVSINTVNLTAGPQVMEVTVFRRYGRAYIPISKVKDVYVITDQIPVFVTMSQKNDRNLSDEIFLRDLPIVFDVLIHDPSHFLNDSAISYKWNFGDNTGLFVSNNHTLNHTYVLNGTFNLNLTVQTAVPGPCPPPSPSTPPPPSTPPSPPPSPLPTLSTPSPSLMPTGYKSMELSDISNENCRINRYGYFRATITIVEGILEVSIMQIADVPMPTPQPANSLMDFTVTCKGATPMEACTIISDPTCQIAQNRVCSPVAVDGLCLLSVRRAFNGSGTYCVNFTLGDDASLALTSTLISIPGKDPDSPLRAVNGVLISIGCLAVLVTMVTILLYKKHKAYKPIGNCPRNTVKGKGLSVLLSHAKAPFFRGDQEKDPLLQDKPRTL

B1: anti-GPNMB antibody GPN-52 (antibody, human IgG1, V domains shown)
VH: DVQLQESGPGLVKPSQTVFLTCTVTGISITTGNYRWSWIRQFPGNKLEWIGYIYYSGTITYNPSLTSRITITRDTPKNEFFLEMNSLTAEDTATYYCARDLTHWYFDVWGTGTTVTVSS
VL: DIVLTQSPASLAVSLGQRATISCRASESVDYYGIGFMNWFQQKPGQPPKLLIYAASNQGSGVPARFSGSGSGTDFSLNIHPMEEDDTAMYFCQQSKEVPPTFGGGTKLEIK
notes: chimeric
B2: anti-GPNMB antibody GPN-35 (antibody, human IgG1, V domains shown)
VH: EVQLVESGGGSVRPGRSLKLSCAAAGFTFSDYYMTWVRQAPTKGLEWVASINHDGGGTYYRDSVKGRFTISRDNARSSLYLQMDSLRSEDTGTYYCTTRAGWHWGQGVMVTVSS
VL: DIQMTQSPASLSASLGETVSIECLASEDIYNYLTWYQQKPGKSPQVLIYSASGLQDGVPSRFSGSGSGRQYSLKINGLESEDAATYFCLQDSEYPLTFGSGTKLEIK
notes: chimeric
B3: anti-GPNMB antibody GPN-06 (antibody, human IgG1, V domains shown)
VH: QVQLQQSGAELVKPGASVKLSCKASGYTFTNYYMYWVKQRPGQGLEWIGEINTRNGGTNFNEKFKSKATLTVDKSSSTAYMQLSSLTSEDSAVYYCTTGFAYWGQGTLVTVSA
VL: DIQMTQSPASLSASVGETVTITCRASENIYSYLVWYQQNQGKSPQLLVYNAKTLAEGVPSRFSGSGSGTQFSLKINSLQPEDFGTYYCQHHYGTPFTFGSGTKLEIK
notes: chimeric
B4: anti-GPNMB antibody GPN-38 (antibody, human IgG1, V domains shown)
VH: QVQLQQPGAELVRPGTSVRLSCKASGYTFTSYWIHWVKQRPGRGLEWIGVIDPSDSYTNYNQQFNVKATLTVDTSSSAAYMQLSSLTSEDSAVYYCARGLITAVNWYFDVWGTGTTVTVSS
VL: B3 VL with A13T, T18I, V34T, N39K, F96L
notes: chimeric
B5: anti-GPNMB antibody GPN-37 (antibody, human IgG1, V domains shown)
VH: EVQLVESGGGLVQPGRSLKLSCAASGFTFSSKSGMAWVRQAPTKGLEWVASISNGGGDTYYRDSVKGRFTISRDNAKNTQYLQMDSLRPEDTATYYCARHRDYGYDAYFDYWGQGVMVTVSS
VL: DIQMTQSPASLSASLGETVTIECLASEDIYSSLAWYQQKPGKSPQLLIYDASSLQDGVPSRFSGSESGTQYSLEINSLQSEDAATYFCQQHHDYPYTFGAGTKLELK
notes: chimeric

The binders below were run against T1, full-length untagged human GPNMB … (assay: cell-based or functional assay).

Row | CD40 (FoB) | CD80 (FoB) | PDL1 (FoB) | GCase (FoB) | Binder
1 | 1.53 FoB | 1.46 FoB | 1.44 FoB |  | B1
2 | 1.31 FoB | 1.22 FoB | 1.3 FoB | 0.9 FoB | B2
3 | 1.44 FoB | 1.38 FoB | 1.61 FoB | 1.58 FoB | B3
4 | 1.01 FoB | 1.03 FoB | 1.03 FoB |  | B4
5 |  |  |  | 1.01 FoB | B5

What follows are binders tested against T1, full-length untagged human GPNMB … (assay: FACS, FS293-huGPNMB+ cells).
Protocol: Recombinant anti-GPNMB antibodies of the present disclosure were examined for their ability to bind human and/or mouse GPNMB expressed on Freestyle293-huGPNMB+ or B16F10 cells, respectively. B16F10 cells are a murine melanoma cell line from a C57BL/6J mouse that endogenously express high levels of mouse GPNMB. The antibodies were also tested for their ability to bind to a human macrophage cell line (U937 cells) engineered to express human GPNMB. Cells were harvested, plated at 100,000 cells/well in a 96-well round bottom plate, and incubated in 100 μl FACS buffer (PBS containing 2% FBS, 2 mM EDTA) containing anti-GPNMB monoclonal antibodies of the present disclosure for 30 minutes on ice. Cells were then washed and incubated in 100 ul FACS buffer containing 1 μg/ml APC-conjugated anti-human IgG secondary antibody for 30 minutes in ice. Cells were washed twice in cold FACS buffer and acquired on a BD FACS Canto. Data analysis and calculation of MFI values was performed with FlowJo (TreeStar) software version 10.0.7.
Importantly, several anti-GPNMB antibodies of the present disclosure also bound to the human macrophage cell line U937 cells engineered to express human GPNMB (U937/huGPNMB+) (FIG. 2C). In FIG. 2C, the first data point in each pair corresponds to U937/huGPNMB+ cells, and the second data point in each pair corresponds to U937/huGPNMB− cells. No anti-GPNMB antibodies bound to U937 cells deficient in human GPNMB expression (U937/huGPNMB−).

Row | MFI fold over background | Binder
6 | 7.6 fold | B1
7 | 104 fold | B2
8 | 66.4 fold | B3
9 | 20.7 fold | B4
10 | 105 fold | B5

These binders were tested against T2, mouse GPNMB endogenously expressed on … (assay: FACS, B16F10 cells).
Method in brief: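 Cells (100,000/well) stained 30 min on ice with anti-GPNMB antibody in PBS/2% FBS/2 mM EDTA, then 1 μg/ml APC anti-human IgG for 30 min on ice. Binding read by flow cytometry as MFI.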

Row | MFI fold over background | Binder
11 | 3.4 fold | B1
12 | 15.4 fold | B2
13 | 1 fold | B3
14 | 5.1 fold | B4
15 | 0.8 fold | B5

These binders were tested against T1, full-length untagged human GPNMB … (assay: FACS titration, FS293-huGPNMB+ cells).
Protocol: Cell-based binding measurements were also performed to measure the apparent affinities of anti-GPNMB antibodies of the present disclosure to cell-surface expressed GPNMB. Serial dilutions of the monoclonal anti-GPNMB antibodies were added to 100,000 Freestyle293-huGPNMB+ or B16F10 cells and allowed to achieve binding equilibrium at 4° C. After addition of fluorescently labeled secondary antibody and brief washing steps, MFI values as a function of titrated antibody concentration was recorded via FACS analysis. Curves were fit using nonlinear regression analysis with Graphpad Prism 6 software.

Row | EC50 | Binder
16 | 1.27 nM | B1
17 | 1.33 nM | B2
18 | 1.61 nM | B3
19 | 0.99 nM | B4
20 | 0.75 nM | B5

Source: US20250270343A1 (Alector, published 2025)
